This is an account of results in paper PMC5836505.

In data set [1] the target is T1, GST-FUS (Homo sapiens, UniProt P35637 1-526). Nature of the data set: competition.
Data set [2] concerns the target T1, GST-FUS. Kind of data set: EMSA. Background: Mobility shift assays separate free from complexed probe on a gel.
The target in data set [3] is His-FUS (UniProt P35637 1-526). Kind of data set: single-molecule TIRF.
The target of data set [4] is T1, GST-FUS. Nature of the data set: EMSA. This is another data set of the same source.

T1 sequence (P35637 whole entry): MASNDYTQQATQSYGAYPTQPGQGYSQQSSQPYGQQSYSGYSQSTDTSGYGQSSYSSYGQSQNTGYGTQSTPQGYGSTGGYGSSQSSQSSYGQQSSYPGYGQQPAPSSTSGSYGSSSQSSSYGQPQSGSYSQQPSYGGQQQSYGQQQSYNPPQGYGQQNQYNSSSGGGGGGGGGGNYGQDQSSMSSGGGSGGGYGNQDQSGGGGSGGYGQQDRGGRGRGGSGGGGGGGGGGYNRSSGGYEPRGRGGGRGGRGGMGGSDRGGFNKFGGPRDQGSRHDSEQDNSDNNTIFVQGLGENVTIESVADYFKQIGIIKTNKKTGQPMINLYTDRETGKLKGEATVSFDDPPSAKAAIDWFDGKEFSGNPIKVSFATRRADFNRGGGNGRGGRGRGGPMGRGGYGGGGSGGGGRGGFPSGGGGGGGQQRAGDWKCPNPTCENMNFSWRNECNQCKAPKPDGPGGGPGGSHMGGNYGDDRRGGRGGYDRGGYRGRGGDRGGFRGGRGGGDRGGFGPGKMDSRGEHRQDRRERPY
Sequence of His-FUS (P35637 whole entry): as above

Take UAAUACUGCCGGGUAAUGAUGGA (ssRNA) [miR-200c (untagged)]: in data set [1], the binding result is given as “binds”.

With UUGUAUUUUGAGCUAGUUUGGUGAC (ssRNA) [GGUG oligo], the binding result in data set [2] is given as “binds”.

Take UAAUACUGCCGGGUAAUGAUGGA (ssRNA) [miR-200c (Cy5)]: the binding result in data set [3] and in data set [4] was “binds” throughout.
